What was measured:
ParB = molecular target: ParB; design: method as in Thanbichler and Shapiro, 2006; details: apo-MipZ; ref Thanbichler and Shapiro, 2006; cited from earlier work
[1] = tested on: double-stranded oligonucleotide (ran2); experiment: SPR analysis of the interaction between MipZ and DNA; type: binding
Method: Figure S5. Surface plasmon resonance (SPR) analysis of the interaction betw een MipZ and DNA, Related to Figure 4.
(A) Effect of Mg2+ on the DNA-binding activity of MipZ. A double-stranded oligonucleotide (ran2, 700 RU) was immobilized on an SPR sensor chip and probed with MipZ (1 µM). The binding reactions were performed in buffer BC containing the indicated nucleotide (2 mM) and no (ATP + Mg2+) or 10 mM (no nucleotide, ADP, ATP) EDTA, respectively.
(B) DNA-binding specificity of MipZ. A double-stranded oligonucleotide (ran2, 500 RU) was immobilized on an SPR sensor chip and allowed to react with MipZ protein (1 µM) that had been preincubated with 2 mM ATP and a double-stranded oligonucleotide (ran2, 6 µM) (dsDNA), a single-stranded oligonucleotide (top strand of ran2, 6 µM) (ssDNA), an oligoribo-nucleotide (with a sequence analogous to the top strand of ran2, 6 µM) (RNA) or polyphosphate (25 µg/ml) (PP), respectively. A reaction performed in the absence of any competitor served as a control. […]
experimental conditions used (data not shown). The dissociation rate constant determined for the reaction without ParB was […]
obtained from crystals flash frozen in a solution of 95% 2 mM, sa mp le s were taken and analyzed for the amount ethanol/50 mM Tris (pH 8.5), and collected at ID23-2, of [α-32P]-GDP produced in the reaction as described ESRF (Grenoble, France). […]

B1: MipZ: P loop ATPase and cell division inhibitor of Caulobacter crescentus; hexahistidine-tagged in vitro, YFP fusion in FRAP (protein)
chain: MAETRVIVVGNEKGGAGKSTIAVHLVTALLYGGAKVAVIDLDLRQRTSARFFENRRAWLDNKKIELPEPLALNLSDNDVALAERPEEEQVAGFEAAFARAMAECDFILIDTPGGDSAITRMAHGRADLVVTPMNDSFVDFDMLGTVDPVTLELTKPSLYSLTVWEGRKQRALSGQRQAMDWVVLRNRLATTEARNRKRLEDRLNALAKRVGFRIGPGLRDRVIYRELFPFGLTIADLSPQVRPVPVSLQHLAARQELRALMHSLGLSAYSGETMLAAQ
modifications: left off: His6, end not stated, state not stated
notes: hexahistidine-tagged in vitro, YFP fusion in FRAP
Kd (ParB): ~2000 nM
rate constant for the dissociation of MipZ from DNA (koff) ([1]; MipZ 0.5 µM, 2 mM ATP, without ParB): 0.025 s⁻¹
half-time t1/2 of dissociation of MipZ from DNA ([1]; in vitro): 28 s
